Measured values as given in patent US20110142761A1 (AbbVie / Abbott, published 2011).
Numbering of substitutions follows the chain as printed.

B1: humanized anti-human IL-1β antibody 1B12.2 (antibody, V domains shown)
VH: EVQLQESGPGLVKPSETLSLTCTVSGFSLSDYGVSWIRQPPGKGLEWLGLIWGGGDTYYNSPLKSRLTISKDNSKSQVSLKLSSVTAADTAVYYCAKQRTLWGYDLYGMDYWGQGTLVTVSS
VL: ETTVTQSPSSLSASVGDRVTITCITSTDIDVDMNWYQQKPGKPPKLLISQGNTLRPGVPSRFSSSGSGTDFTFTISSLQPEDFATYYCLQSDNLPLTFGQGTKLEIK
notes: Cloned into IgG expression vectors and made as full-length humanized antibody; also called h1B12VH.1a/h1B12VL.1b; combination 2
B2: humanized anti-human IL-1β antibody 1B12.8 (antibody, V domains shown)
VH: EVQLVESGGGLVQPGGSLRLSCAVSGFTLSDYGVSWIRQAPGKGLEWLGLIWGGGDTYYNSPLKSRLTISKDNSKSTVYLQMNSLRAEDTAVYYCAKQRTLWGYDLYGMDYWGQGTLVTVSS
VL: ETTVTQSPAFLSVTPGEKVTITCITSTDIDVDMNWYQQKPDQPPKLLISQGNTLRPGVPSRFSSSGSGTDFTFTISSLEAEDAATYYCLQSDNLPLTFGQGTKLEIK
notes: Cloned into IgG expression vectors and made as full-length humanized antibody; also called h1B12VH.2a/h1B12VL.2b; combination 8
B3: humanized anti-human IL-1β antibody 1B12.4 (antibody, V domains shown)
VH: B1 VH
VL: B2 VL
notes: Cloned into IgG expression vectors and made as full-length humanized antibody; also called h1B12VH.1a/h1B12VL.2b; combination 4
B4: humanized anti-human IL-1β antibody 1B12.5 (antibody, V domains shown)
VH: B2 VH
VL: B1 VL with E1D, T3Q
notes: Cloned into IgG expression vectors and made as full-length humanized antibody; also called h1B12VH.2a/h1B12VL.1a; combination 5
B5: humanized anti-human IL-1β antibody 1B12.7 (antibody, V domains shown)
VH: B2 VH
VL: B2 VL with E1D, T3V
notes: Cloned into IgG expression vectors and made as full-length humanized antibody; also called h1B12VH.2a/h1B12VL.2a; combination 7
B6: humanized anti-human IL-1β antibody 1B12.6 (antibody, V domains shown)
VH: B2 VH
VL: B1 VL
B7: humanized anti-human IL-1β antibody 1B12.3 (antibody, V domains shown)
VH: B1 VH
VL: B2 VL with E1D, T3V
B8: humanized anti-human IL-1β antibody 1B12.1 (antibody, V domains shown)
VH: B1 VH
VL: B1 VL with E1D, T3Q

What follows are binders tested against T1, human IL-1β (human, UniProt P01584 117-269) (assay: SPR (Biacore 3000), antibody captured, human IL-1β as analyte, 25 C).
T1 construct: it has 153 residues and begins APVRS; also called hIL-1β; recombinant purified human IL-1β
Method: The BIACORE® assay (Biacore, Inc., Piscataway, N.J.) determines the affinity of antibodies with kinetic measurements of on-, off-rate constants. Binding of antibodies to recombinant purified human IL-1β was determined by surface plasmon resonance-based measurements with a Biacore™ 3000 instrument (Biacore™ AB, Uppsala, Sweden) using running HBS-EP (10 mM HEPES [pH 7.4], 150 mM NaCl, 3 mM EDTA, and 0.005% surfactant P20) at 25° C. All chemicals were obtained from Biacore® AB (Uppsala, Sweden) unless otherwise stated. Approximately 5,000 RU of goat anti-mouse IgG, (Fcγ), fragment specific polyclonal antibody (Pierce Biotechnology Inc, Rockford, Ill.) diluted in 10 mM sodium acetate (pH 4.5) was directly immobilized across a CM5 research grade biosensor chip using a standard amine coupling kit according to manufacturer's instructions and procedures at 25 μg/ml. Unreacted moieties on the biosensor surface were blocked with ethanolamine. Modified carboxymethyl dextran surface in flowcell 2 and 4 was used as a reaction surface. Unmodified carboxymethyl dextran without goat anti-mouse IgG in flow cell 1 and 3 was used as the reference surface. For kinetic analysis, rate equations derived from the 1:1 Langmuir binding model were fitted simultaneously to association and dissociation phases of all eight injections (using global fit analysis) with the use of Biaevaluation 4.0.1 software. Purified antibodies were diluted in HEPES-buffered saline for capture across goat anti-mouse IgG specific reaction surfaces. Mouse antibodies to be captured as a ligand (25 μg/ml) were injected over reaction matrices at a flow rate of 5 μl/minute. The association and dissociation rate constants, kₒₙ (unit M⁻¹s⁻¹) and koff (unit s⁻¹) were determined under a continuous flow rate of 25 μl/minute. Rate constants were derived by making kinetic binding measurements at ten different antigen concentrations ranging from 10-200 nM. The equilibrium dissociation constant (unit M) of the reaction between antibodies and the target antigen was then calculated from the kinetic rate constants by the following formula: KD=koff/kₒₙ. Binding is recorded as a function of time and kinetic rate constants are calculated. In this assay, on-rates as fast as 10⁶M⁻¹s⁻¹ and off-rates as slow as 10⁻⁶s⁻¹ can be measured.

Binder	Kd [nM]	koff [s⁻¹]	kon [M⁻¹ s⁻¹]
B1	0.147	0.0009	6.13e+06
B2	0.23	0.00137	5.94e+06
B3	0.161	0.00097	6.01e+06
B4	0.231	0.00144	6.24e+06
B5	0.284	0.00164	5.76e+06

The binders below were run against T1, human IL-1β (assay: ELISA; antibody captured on anti-human Fc, biotinylated human IL-1β titrated).
Method: To determine if anti-IL-1β mAbs bind to human IL-1β, ELISA plates (Nunc, MaxiSorp, Rochester, N.Y.) were incubated overnight at 4° C. with anti-human Fc antibody diluted in Pierce Coat buffer at 2 μg/ml (Jackson Immunoresearch, West Grove, Pa.). Plates were washed five times in washing buffer (PBS containing 0.05% Tween 20), and blocked for 1 hour at 25° C. with 200 μl per well superblock blocking buffer (Thermo scientific, #37515). Blocking buffer was removed by tapping plates, and 2 μg/ml of each antibody in PBS containing 10% superblock, 0.5% tween-20 was added to the wells at 100 μl per well and incubated at 25° C. for 1 hour. The wells were washed five times in 1×PBST, and 1 μg/ml biotinylated antigen was titrated at 1:6 serial dilutions (for a range of μg to pg in PBS containing 10% superblock, 0.05% tween 20). Each dilution of antigen was then added to the plates and incubated for 1 hour at 25° C. The wells were washed five times in 1×PBST and incubated for 1 hour at 25° C. with polyHRP streptavidin (KPL #474-3000, Gaithersburg, Md.). The wells were washed five times in 1×PBST, and 100 μl of ULTRA-TMB ELISA (Pierce, Rockford, Ill.) were added per well. Following color development the reaction was stopped with 1N HCL and absorbance at 450 nm was measured. The results are shown in Table 9, and the numerical value indicating binding of human anti-IL-1β antibodies to human IL-1β.

Binder	EC50 [nM]
B1	0.0376
B2	0.0479
B3	0.0378
B4	0.0488
B5	0.0582

Each binder was assayed against T1, human IL-1β (assay: cell-based or functional assay).

Binder	Potency on Human IL-1β IC50 (pM); inhibition of IL-1β-induced IL-8 production by MRC-5 cells [pM]
B1	146
B6	378
B7	303
B2	484
B8	151
B3	597
B4	319
B5	581
